Assay [1] relates to serum IgG anti-hsp60, anti-hsp70, anti-hsp90, anti-tetanus toxoid. Put plainly: Determination of auto-antibodies (antibody capture ELISA on antigen-coated plates). Type of assay: binding, human. To be noted: for IgG antibodies to the antigen in serum, Mean ± SD: group mean. On the procedure: All of the serum samples that were collected were stored in aliquotes at −20° C. and thawed before each assay. Total human IgG anti-hsp60, anti-hsp70, and anti-hsp90, as well as anti-tetanus toxoid proteins were detected by the antibody capture-type enzyme immunoassay ELISA [Maggio, M. T. (1981) Enzyme Immunoassay, CRC Press, Boca Raton, USA]. 96-well micro titer plates (Dynatech) were coated with the protein according to the antibody being tested. Serum samples were distributed at dilutions in the range of 1:50 to 1:70 into the pre-coated wells for the protein detection assay. Thus, any IgG anti-hsp60, anti-hsp70, anti-hsp90, or anti-tetanus toxoid present should be bound by the immobilized peptide or protein. After washing off unbound material, a mouse monoclonal anti-human IgG antibody conjugated to alkaline phosphatase (AP) was added to the wells. After an additional washing step to remove any unbound anti-enzyme reagent, the AP substrate p-nitrophenyl phosphate (pNPP) solution was added. The intensity of the color developed was measured using an Anthos htll ELISA reader at λ=405 nm. The amount of antibody detected was represented as Units of Optical Density at λ=405 nm. Patients and control subjects were assayed in the same experiment.
The InStat 2.01 computer program was used for the statistical analysis. The results obtained from the samples of healthy individuals were used to determine the cutoff for each assay, which was established as the mean plus two standard deviations (SDs). […] The results were presented as the percentage of positive from the total tested group.
Levels of IgG antibodies to hsp60, hsp70, and hsp90 were measured in the sera of 20 Type 1 Diabetes children (P1-P5, P7-P21; Table 3A) and two control groups, 10 normoglycemic children (Table 3B) and 15 healthy adult blood donors (Table 3C). The level of the antibodies was scored as positive when it was greater than the cut-off level (cut-off levels were established based on the mean value of antibody levels from the normoglycemic children plus two standard deviations).

In assay [2] the test system is peripheral blood mononuclear cells (PBMC) / T-cells. Put plainly: T-cell proliferation assay (3H-Thymidine incorporation, stimulation index). Type of assay: cell-based, human. To be noted: for T-cell proliferative response, S.I., Mean ± SD: group mean.
Assay [3] has the same test system. To be noted: 25 newly diagnosed Type 1 Diabetes adult patients; Abulafia-Lapid et al. 1999; cited from earlier work.

Where “and” joins values, the source holds several entries; their conditions need not be identical. Equal values may be shown once.

B1: hsp60: recombinant human hsp60 (StressGen, Canada), 60 kDa heat-shock protein (protein)
chain: AKDVKFGADARALMLQGVDLLADAVAVTMGPKGRTVIIEQSWGSPKVTKDGVTVAKSIDLKDKYKNIGAKLVQDVANNTNEEAGDGTTTATVLARSIAKEGFEKISKGANPVEIRRGVMLAVDAVIAELKKQSKPVTTPEEIAQVATISANGDKEIGNIISDAMKKVGRKGVITVKDGKTLNDELEIIEGMKFDRGYISPYFINTSKGQKCEFQDAYVLLSEKKISSIQSIVPALEIANAHRKPLVIIAEDVDGEALSTLVLNRLKVGLQVVAVKAPGFGDNRKNQLKDMAIATGGAVFGEEGLTLNLEDVQPHDLGKVGEVIVTKDDAMLLKGKGDKAQIEKRIQEIIEQLDVTTSEYEKEKLNERLAKLSDGVAVLKVGGTSDVEVNEKKDRVTDALNATRAAVEEGIVLGGGCALLRCIPALDSLTPANEDQKIGIEIIKRTLKIPAMTIAKNAGVEGSLIVEKIMQSSSEVGYDAMAGDFVNMVEKGIIDPTKVVRTALLDAAGVASLLTTAEVVVTEIPKEEKDPGMGAMGGMGGGMGGGMF
With B1, the “IgG antibodies to the antigen in serum, Mean ± SD” value is recorded as 0.6 Units of Optical Density at λ=405 nm in assay [1] (Type 1 Diabetes children), 0.61 ± 0.12 Units of Optical Density at λ=405 nm in assay [1] (healthy adult blood donors) and 0.45 ± 0.11 Units of Optical Density at λ=405 nm in assay [1] (pediatric control serum donors). Besides, the “Positive (antibody level above cut-off)” value is on record as 45% in assay [1] (Type 1 diabetes children (n=20), cut-off = mean of normoglycemic children plus two SD); 45% in assay [1] (Type 1 diabetes children (n=20), cut-off = mean of normoglycemic children plus two SD, listed as Hsp60); 6% in assay [1] (healthy adult blood donors (n=15)); 6.6% in assay [1] (healthy adult blood donors (n=15), listed as Hsp60); 10% in assay [1] (pediatric control serum donors / healthy children (n=10)); 10% in assay [1] (pediatric control serum donors / healthy children (n=10), listed as Hsp60). The “T-cell proliferative response, Stimulation Index (S.I.)” value in assay [2] was 1.25. For the same molecule, the “T-cell proliferative response, S.I., Mean ± SD” value in assay [2] (Healthy subjects) is 1.79±0.74 and 1.7 ± 0.72; in assay [2] (Type 1 Diabetes adult patients) it was 1.22 ± 0.36; in assay [2] (Type 1 Diabetes children) it was 3.6±2.6; in assay [2] (Type 2 Diabetes patients), 1.7 ± 0.75. In assay [2] (Type 1 Diabetes adult patients (Table 1D), tested after more than 12 weeks), the “T-cell response, in words” value is reported as “not seen”. Further, the results for the “Responding subjects (S.I.≥2)” value in assay [2] (Type 1 Diabetes children) and in assay [2] (healthy subjects / healthy blood donors) were 85% and 39%, respectively. Besides, the “Patients tested positive (proliferative response)” value in assay [3] was 92%.

The values are drawn from US20060089302A1, “Hsp70-derived peptides and uses thereof in the diagnosis and treatment of autoimmune diseases” (priority 2002, published 2006).
